From patent US20250250350A1 come the findings set out here.

The test deals with Alkaline Phosphatase, Germ Cell (ALPG) expressed on K562-ALPG and K562-ALPG/MSLN target cells (UniProt P10696).
Alkaline Phosphatase, Germ Cell (ALPG) expressed on K562-ALPG and K562-ALPG/MSLN target cells, sequence (P10696 20-503): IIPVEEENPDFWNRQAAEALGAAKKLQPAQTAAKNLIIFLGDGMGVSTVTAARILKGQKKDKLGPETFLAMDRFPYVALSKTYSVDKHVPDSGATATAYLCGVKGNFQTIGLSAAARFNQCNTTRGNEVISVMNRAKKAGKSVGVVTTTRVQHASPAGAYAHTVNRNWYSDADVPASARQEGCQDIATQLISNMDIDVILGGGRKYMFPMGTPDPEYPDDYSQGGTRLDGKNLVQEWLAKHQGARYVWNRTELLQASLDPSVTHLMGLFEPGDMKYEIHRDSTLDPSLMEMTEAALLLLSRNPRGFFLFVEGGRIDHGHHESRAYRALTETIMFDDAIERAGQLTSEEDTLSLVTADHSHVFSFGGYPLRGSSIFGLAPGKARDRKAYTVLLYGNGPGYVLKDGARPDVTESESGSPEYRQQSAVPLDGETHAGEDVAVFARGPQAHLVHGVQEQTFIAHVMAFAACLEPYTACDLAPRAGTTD

B1: Myc-tag ALPG/P priming receptor: anti-ALPG/P scFv-CD8α hinge-Notch1 TMD-Notch1 STS-HNF1aDBD-p65 activation domain (protein, not shown: small tags and cut ends)
chain: DIQMTQSPSSLSASVGDRVTITCRASENIYSYVAWYQQKPGKAPKLLIYNAKSLASGVPSRFSGSGSGTDFTLTISSLQPEDFATYYCQHHYVSPWTFGGGTKLEIKGGGGSGGGGSGGGGSQVQLQESGPGLVKPSETLSLTCTVSGFSLTSYGVSWIRQPAGKGLEWIGVIWEDGSTNYHSALISRVTMSVDTSKNQFSLKLSSVTAADTAVYYCARPHYGSSYVGAMEYWGAGTTVTVSSATTTPAPRPPTPAPTIASQPLSLRPEACFMYVAAAAFVLLFFVGCGVLLSRKRRRQHGQLWFPEGFKVSEASKKKRREPLGEDSVGLKPLKNAMVSKLSQLQTELLAALLESGLSKEALLQALGEPGPYLLAGEGPLDKGESCGGGRGELAELPNGLGETRGSEDETDDDGEDFTPPILKELENLSPEEAAHQKAVVETLLQEDPWRVAKMVKSYLQQHNIPQREVVDTTGLNQSHLSQHLNKGTPMKTQKRAALYTWYVRKQREVAQQFTHAGQGGLIEEPTGDELPTKKGRRNRFKWGPASQQILFQAYERQKNPSKEERETLVEECNRAECIQRGVSPSQAQGLGSNLVTEVRVYNWFANRRKEEAFRHKLAMTCRDEFPTMVFPSGQISQASALAPAPPQVLPQAPAPAPAPAMVSALAQAPAPVPVLAPGPPQAVAPPAPKPTQAGEGTLSEALLQLQFDDEDLGALLGNSTDPAVFTDLASVDNSEFQQLLNQGIPVAPHTTEPMLMEYPEAITRLVTGAQRPPDPAPAPLGAPGLPNGLLSGDEDFSSIADMDFSALLSQISS
The molecule B1 gave a % of LG1 T cells CAR+ PrimeR+ (upper right quadrant) after 72 h with K562 ALPG high, 1:1 of 0.043%; a % of LG1 T cells CAR+ PrimeR+ (upper right quadrant) after 72 h with K562 ALPG low, 1:1 of 0.25%; a % of LG1 T cells CAR+ PrimeR+ (upper right quadrant), T cells alone, no ALPG cells (baseline) of 1.11%; a % of LG1 T cells CAR+ PrimeR- (upper left quadrant) after 72 h with K562 ALPG high, 1:1 of 5.29%. For the same molecule, the % of LG1 T cells CAR+ PrimeR- (upper left quadrant) after 72 h with K562 ALPG low, 1:1 was 5.88%; the % of LG1 T cells CAR+ PrimeR- (upper left quadrant; FLAG APC vs myc PE), T cells alone, no ALPG cells (baseline) is 0.12%; the % of LG1 T cells PrimeR+ CAR- (lower right quadrant) after 72 h with K562 ALPG high, 1:1 is 0.043%; the % of LG1 T cells PrimeR+ CAR- (lower right quadrant) after 72 h with K562 ALPG low, 1:1 was 0.44%. The same molecule showed a % of LG1 T cells PrimeR+ CAR- (lower right quadrant), T cells alone, no ALPG cells (baseline) of 12%.
